Fewer inactive variants are shown than the library holds.
Columns and labels:
biotinyl-Phe-oxazolone = test: self-aminoacylation, catalytic enhancement (BFO) (fold over background); higher = more active; k-Seq, kA / k0A0; sequences stand for … in GGGAAUGGAUCCACAUCUACGAAUUC…UUCACUGCAGACUUGACGAAGCUG
In short: (§1)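 The uncatalyzed rate is the low-activity peak of a bimodal Gaussian fit, and catalytic enhancement is median kA divided by it. The kA values came from pseudo-first-order fits, with 1000 bootstraps, of per-sequence fraction reacted measured by streptavidin capture, triplicate qPCR and Illumina sequencing. Mutagenized RNA pools with a 21-nt variable region (0.43 μM) were reacted with each biotinyl-aminoacyl-oxazolone at 2–1250 μM in 50 μL HEPES/NaCl/KCl/MgCl2/CaCl2 buffer with 5% acetonitrile, pH 6.9–7.0, for 90 minutes at room temperature.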

biotinyl-Trp-oxazolone = test: self-aminoacylation, catalytic enhancement (BWO) (fold over background); higher = more active; k-Seq, kA / k0A0; sequences stand for … in GGGAAUGGAUCCACAUCUACGAAUUC…UUCACUGCAGACUUGACGAAGCUG
In short: as §1

| Sequence | self-aminoacylation (biotinyl-Phe-oxazolone) | self-aminoacylation (biotinyl-Trp-oxazolone) |
| --- | --- | --- |
| CCACACUUCAACCGAUCGGUC [Fam1B.1 aminoacylation ribozyme variant] | 3.75 | 5.96 |
| AUUCACCUAGGUAAUCGAGUG [Fam2.2 aminoacylation ribozyme variant] | 2.87 |  |
| AAGUUGGCUAAUAGUCGCUAG [Fam3.1 aminoacylation ribozyme variant] | 2.22 |  |
| AUCUUUGCUAAUAGUCGCAAG [Fam3.1 aminoacylation ribozyme variant] | 2.44 |  |
| UAGUUUGCUAAUAGUCGGAAG [Fam3.1 aminoacylation ribozyme variant] | 6.04 | 2.37 |
| AUGUUUGCUACUAGUCGCAAG [Fam3.1 aminoacylation ribozyme variant] | 2.12 |  |
| AAGGUAGCUAAUAGUCGCAAG [Fam3.1 aminoacylation ribozyme variant] | 3.35 |  |
| CUGGUUCAAACAAUCGGUCUG [Fam1A.1 aminoacylation ribozyme variant] | 14 | 9.11 |
| AAGUUUUCUAAUAGUCUCAAG [Fam3.1 aminoacylation ribozyme variant] | 2.15 |  |
| CUACUUCAAACAAUCGGCCCG [Fam1A.1 aminoacylation ribozyme variant] | 3.03 |  |
| AAGGUUGCUUAUAGUCGCAAG [Fam3.1 aminoacylation ribozyme variant] | 2.7 |  |
| AAGUAUACUAAUAGUCGCAAG [Fam3.1 aminoacylation ribozyme variant] | 2.34 |  |
| AUUGACCUAGGUCAUCGGGUC [Fam2.2 aminoacylation ribozyme variant] | 3.83 |  |
| CUACUGCAAACAAUCGGUCCG [Fam1A.1 aminoacylation ribozyme variant] | 6.96 |  |
| UCGUUUGCUAAUAGUCGCAAG [Fam3.1 aminoacylation ribozyme variant] | 4.06 |  |
| GAGUUUGCUAAUCGUCGCAAG [Fam3.1 aminoacylation ribozyme variant] | 2.55 |  |
| CGACUUCAAACAAUCGAUCUG [Fam1A.1 aminoacylation ribozyme variant] | 3.21 |  |
| AAGGUUACUAAUAGUCGCAAG [Fam3.1 aminoacylation ribozyme variant] | 2.19 |  |
| AAUUUUGCUAAUAGUCACAAG [Fam3.1 aminoacylation ribozyme variant] | 3.77 |  |
| AAAUUUGCUAAUAGUCGAAAG [Fam3.1 aminoacylation ribozyme variant] | 4.94 |  |
| CUACUUCAAACAAUCGGCCUU [Fam1A.1 aminoacylation ribozyme variant] | 2.48 |  |
| AAGUUUGCUAAUAAUCGUAAG [Fam3.1 aminoacylation ribozyme variant] | 3.54 |  |
| AUACUUCAAACAAUCGGUCUA [Fam1A.1 aminoacylation ribozyme variant] | 3.14 |  |
| AAGUUUGCUAAUAGUCGCAAA [Fam3.1 aminoacylation ribozyme variant] | 2.2 |  |
| AAGGUUGCUAAUAGUCGCCAG [Fam3.1 aminoacylation ribozyme variant] | 2.54 |  |
| CUACUGCAAACAAUCGGUGUG [Fam1A.1 aminoacylation ribozyme variant] | 3.44 |  |

| Sequence | self-aminoacylation (biotinyl-Phe-oxazolone) | self-aminoacylation (biotinyl-Trp-oxazolone) |
| --- | --- | --- |
| AUUACCCUGGUCAUCCAGUAA [Fam2.1 aminoacylation ribozyme variant] |  | 2.35 |
| AAGUUUUCUAGUAGUCGCAAG [Fam3.1 aminoacylation ribozyme variant] | 2.53 |  |
| AUGUUUGCUAAUAGUCGCAAU [Fam3.1 aminoacylation ribozyme variant] | 2.83 |  |
| AUGUUUGCUCAUAGUCGCAAG [Fam3.1 aminoacylation ribozyme variant] | 2.41 |  |
| CGACUGCAAACAAUCGGUCUG [Fam1A.1 aminoacylation ribozyme variant] | 6.2 |  |
| CUCCUUCAAACACUCGGUCUG [Fam1A.1 aminoacylation ribozyme variant] | 6.18 |  |
| CUAUUUCAACCAAUCGGUCUG [Fam1A.1 aminoacylation ribozyme variant] | 2.27 |  |
| CAACUUCACACAAUCGGUCUG [Fam1A.1 aminoacylation ribozyme variant] | 3.02 |  |
| AUGACCCUGGUCAUCGAGUCA [Fam2.1 aminoacylation ribozyme variant] |  | 2.12 |
| CUACUCCAAACAAUCGGUUUG [Fam1A.1 aminoacylation ribozyme variant] | 2.1 |  |
| AUUACCCUGGUCAUGGAGUGG [Fam2.1 aminoacylation ribozyme variant] |  | 2.54 |
| AUUACCCUGGUCAGCGAGUGC [Fam2.1 aminoacylation ribozyme variant] | 8.87 |  |
| AAGUUUGUUAAAAGUCGCAAG [Fam3.1 aminoacylation ribozyme variant] | 2.4 |  |
| AAGUUGGCUAAUAGUCGCCAG [Fam3.1 aminoacylation ribozyme variant] | 2.1 |  |
| GAGUUUGUUAAUAGUCGCAAG [Fam3.1 aminoacylation ribozyme variant] | 2.36 |  |
| AAGUUUACGAAUAGUCGCAAG [Fam3.1 aminoacylation ribozyme variant] | 2.82 |  |
| CCGCACUUCAAGCAAUCGGUA [Fam1B.1 aminoacylation ribozyme variant] |  | 2.16 |
| CUUCACCUAGGUCAUCGGGAG [Fam2.2 aminoacylation ribozyme variant] |  | 2.1 |
| AAGAUUGAUAAUAGUCGCAAG [Fam3.1 aminoacylation ribozyme variant] |  | 2.33 |
| CUACUGCAAACAAGCGGUCUG [Fam1A.1 aminoacylation ribozyme variant] | 5.58 |  |
| GAGUUUGCUAAUAGCCGCAAG [Fam3.1 aminoacylation ribozyme variant] | 4.21 |  |
| AUUCACCUAGGUCACCUGGUG [Fam2.2 aminoacylation ribozyme variant] | 8.5 |  |
| GAGUUUGCUAAUAGUCGCACG [Fam3.1 aminoacylation ribozyme variant] | 3 |  |
| AUUCACCUAGGUCUUCGUGUG [Fam2.2 aminoacylation ribozyme variant] | 5.39 |  |
| AUACUUCAAACAAUCUGUCUG [Fam1A.1 aminoacylation ribozyme variant] | 2.2 |  |
| AAGAUUGCUAAUAGUCACAAG [Fam3.1 aminoacylation ribozyme variant] | 2.63 |  |

| Sequence | self-aminoacylation (biotinyl-Phe-oxazolone) | self-aminoacylation (biotinyl-Trp-oxazolone) |
| --- | --- | --- |
| CUACUUCAAACAAUCGCUCUG [Fam1A.1 aminoacylation ribozyme variant] | 2.58 |  |
| AAGUUUGCUAAUAGUCGCCUG [Fam3.1 aminoacylation ribozyme variant] | 7.8 |  |
| CCACUGCAAACAAUCGGUCUG [Fam1A.1 aminoacylation ribozyme variant] | 4.13 |  |
| AUUCGCCUAGGUCAUCGGUUG [Fam2.2 aminoacylation ribozyme variant] | 4.32 |  |
| AAGUCUGCUAAUAGUCGCAAU [Fam3.1 aminoacylation ribozyme variant] | 6.06 |  |
| AAGUUAGCUAAUAGUCGCACG [Fam3.1 aminoacylation ribozyme variant] | 2.06 |  |
| CCACACAUCAAUCAAUCGGUC [Fam1B.1 aminoacylation ribozyme variant] | 2.22 |  |
| AAGUUAGCUAAUAGUCACAAG [Fam3.1 aminoacylation ribozyme variant] | 3.83 |  |
| GUUCACCUAGGUCAUCGGGAG [Fam2.2 aminoacylation ribozyme variant] |  | 2.13 |
| AAGUUUACUAAUAGUUGCAAG [Fam3.1 aminoacylation ribozyme variant] | 2.19 |  |
| CUCCAUCAAACAAUCGGUCUG [Fam1A.1 aminoacylation ribozyme variant] | 2.14 |  |
| AUAACCCUGGUCGUCGAGUGA [Fam2.1 aminoacylation ribozyme variant] | 2.78 |  |
| AAGUUAGCUAAUAGUCGCAAU [Fam3.1 aminoacylation ribozyme variant] | 2.2 |  |
| CCACACUUCAAGCAAUCGAUC [Fam1B.1 aminoacylation ribozyme variant] | 2.02 |  |
| AUUCACCUACGUCAUCGGGUU [Fam2.2 aminoacylation ribozyme variant] | 2.52 |  |
| AAGUUUGCGGAUAGUCGCAAG [Fam3.1 aminoacylation ribozyme variant] | 2.73 |  |
| AAAUUUGCUAAUAGUCUCAAG [Fam3.1 aminoacylation ribozyme variant] | 2.03 |  |
| AAGUUUGCUAAUUGUCGCAAU [Fam3.1 aminoacylation ribozyme variant] | 6.81 |  |
| GUACAUCAAACAAUCGGUCUG [Fam1A.1 aminoacylation ribozyme variant] | 2 |  |
| AUUACCGUGGUCAUCGAGCGA [Fam2.1 aminoacylation ribozyme variant] |  | 2.2 |
| AAGUUCGCUAAUAGUCGAAAG [Fam3.1 aminoacylation ribozyme variant] | 4.18 |  |
| AUUCACCUAGGUCGUCGGGUC [Fam2.2 aminoacylation ribozyme variant] | 5.09 |  |
| AUUCUCCUAGGUCAUCGUGUG [Fam2.2 aminoacylation ribozyme variant] | 3.73 |  |
| GUACCUCAAACAAUCGGUCUG [Fam1A.1 aminoacylation ribozyme variant] | 2.42 |  |
